These results are taken from doi:10.1101/2021.03.09.434688.

Where “and” joins values, the source holds several entries; their conditions need not be identical. Equal values may be shown once.

For one assay, the target named is PsnB. Kind of assay: crystal structure.
Assay [1] deals with fluorophore-labeled core peptide Fl_PsnA2(28-38). Kind of assay: fluorescence polarisation. (In general: In fluorescence polarisation assays a small probe gives low polarisation when free and higher when bound to something large.)
For assay [2], the target named is fluorophore-labeled minimal precursor peptide Fl_PsnA2(14-38). The assay is described as follows: fluorescence polarisation.
The target of assay [3] is MP variants with one or two Glu-to-Ala mutations. Kind of assay: fluorescence polarisation.

In the case of PsnB (enzyme), the stoichiometry N – broadly, the number of molecules, sites or subunits per partner or assembly – in the assay with PsnB was determined as 2. Moreover, the equilibrium dissociation constant (Kd) (in general, the concentration at which binding is half-saturated) in assay [1] is above 100 µM. For the same substance, in assay [2], the fold enhancement of the interaction with ADP (1 mM) against no nucleotide was 9 fold, the fold enhancement of the interaction with AMPPNP (1 mM) against no nucleotide amounted to 2 fold and the fold tighter binding than the LP (Fl LP) was 6 fold. Besides, in assay [3], the fold reduction of the affinity against MP is 10 fold and 4 fold.
On to leader-fused PsnB (enzyme), for which, in assay [1], the Kd came out at 11 µM. This counts as double-digit micromolar.
